Data on 20 sequences can be found in the Immune Epitope Database (IEDB).

Among the targets are HLA-A*11:01; HLA-A*68:01; HLA-A*31:01; HLA-A*03:01; HLA-A*33:01.
Common to all, as to assay: IEDB peptide-MHC binding, purified MHC/competitive/radioactivity; filed as Kd, often an IC50 or EC50 that approximates it; ≥ and ≤ were set here for values at or beyond the usual limits of such assays
[1] abbreviates: source organism: Vaccinia virus WR.
Setting [2] is: source organism: Mammarenavirus guanaritoense.
[3] abbreviates: source organism: SARS coronavirus Tor2.
[4] abbreviates: source organism: Mammarenavirus machupoense.
Setting [5] is: source organism: Mammarenavirus whitewaterense.

Broadly, the Kd is the concentration at which binding is half-saturated. On to VTSLAIKNY, for which the Kd in the test with HLA-A*11:01 (setting [1]) is 322 nM; with HLA-A*68:01 (setting [1]), 12500 nM; with HLA-A*31:01 (setting [1]), ≥ 34800 nM; with HLA-A*03:01 (setting [1]), ≥ 25100 nM; with HLA-A*33:01 (setting [1]) it was ≥ 77.7 µM.

With ETAKVIKLVK, the Kd with HLA-A*11:01 (setting [1]) is 192 nM; in the test with HLA-A*68:01 (setting [1]) it was 21.4 nM; with HLA-A*31:01 (setting [1]) it was 9310 nM; with HLA-A*03:01 (setting [1]) it was 1610 nM; in the test with HLA-A*33:01 (setting [1]), ≥ 70 µM.

Turning to TCITSMAER, the Kd was 17400 nM with HLA-A*11:01 (setting [2]); 243 nM with HLA-A*68:01 (setting [2]); 559 nM with HLA-A*31:01 (setting [2]); ≥ 67000 nM in the test with HLA-A*03:01 (setting [2]); 2.63 µM in the test with HLA-A*33:01 (setting [2]).

On to ATAHSELAK, for which the Kd is 5.33 nM in the test with HLA-A*11:01 (setting [3]); 19.2 nM in the test with HLA-A*68:01 (setting [3]); 18500 nM with HLA-A*31:01 (setting [3]); 11.6 nM with HLA-A*03:01 (setting [3]); ≥ 77.7 µM with HLA-A*33:01 (setting [3]).

As for LIVSLCPTK, the Kd with HLA-A*11:01 (setting [1]) was found to be 107 nM; with HLA-A*68:01 (setting [1]), 75.4 nM; with HLA-A*31:01 (setting [1]), 14200 nM; in the test with HLA-A*03:01 (setting [1]), 8400 nM; with HLA-A*33:01 (setting [1]) it was 1.44 µM.

Consider SNIQFNISK, for which the Kd was 12.2 nM with HLA-A*11:01 (setting [4]); 15 nM with HLA-A*68:01 (setting [4]); 1740 nM in the test with HLA-A*31:01 (setting [4]); 4910 nM in the test with HLA-A*03:01 (setting [4]); 10.9 µM with HLA-A*33:01 (setting [4]).

On to IVNEHDIKY, for which the equilibrium dissociation constant (Kd) in the test with HLA-A*11:01 (setting [1]) was 85.1 nM; with HLA-A*68:01 (setting [1]), 4460 nM; in the test with HLA-A*31:01 (setting [1]), ≥ 39900 nM; with HLA-A*03:01 (setting [1]), 1.13 nM; with HLA-A*33:01 (setting [1]) it was ≥ 55.8 µM.

As for KSGGLSSGFY, the Kd in the test with HLA-A*11:01 (setting [1]) was 5210 nM; with HLA-A*68:01 (setting [1]) it was ≥ 70200 nM; with HLA-A*31:01 (setting [1]), ≥ 70000 nM; with HLA-A*03:01 (setting [1]), 2570 nM; with HLA-A*33:01 (setting [1]), ≥ 70 µM.

As for NVKHTSVSAK, the Kd was 3350 nM with HLA-A*11:01 (setting [1]); 502 nM in the test with HLA-A*68:01 (setting [1]); 10300 nM in the test with HLA-A*31:01 (setting [1]); 519 nM with HLA-A*03:01 (setting [1]); 8.28 µM with HLA-A*33:01 (setting [1]).

Consider IAQYKCVTIK, for which the Kd is 773 nM with HLA-A*11:01 (setting [1]); 5860 nM with HLA-A*68:01 (setting [1]); 5880 nM with HLA-A*31:01 (setting [1]); 29.1 nM with HLA-A*03:01 (setting [1]); ≥ 24.1 µM with HLA-A*33:01 (setting [1]).

TSLAIKNYYR: the Kd with HLA-A*11:01 (setting [1]) worked out at 0.933 nM; with HLA-A*68:01 (setting [1]) it was 5.8 nM; with HLA-A*31:01 (setting [1]), 460 nM; in the test with HLA-A*03:01 (setting [1]) it was 118 nM; with HLA-A*33:01 (setting [1]), 0.258 µM.

Consider MVDVSMMSMY, for which the Kd with HLA-A*11:01 (setting [1]) was 2040 nM; in the test with HLA-A*68:01 (setting [1]), 148 nM; with HLA-A*31:01 (setting [1]), ≥ 23900 nM; with HLA-A*03:01 (setting [1]), 2330 nM; with HLA-A*33:01 (setting [1]), ≥ 30.6 µM.

YIIRRSGCR: the equilibrium dissociation constant (Kd) with HLA-A*11:01 (setting [1]) turned out to be 566 nM; with HLA-A*68:01 (setting [1]) it was 64.1 nM; with HLA-A*31:01 (setting [1]), 29.3 nM; with HLA-A*03:01 (setting [1]) it was 10500 nM; with HLA-A*33:01 (setting [1]) it was 0.192 µM.

Turning to YFISIYSRPK, the Kd with HLA-A*11:01 (setting [1]) stood at 853 nM; with HLA-A*68:01 (setting [1]), 25.2 nM; with HLA-A*31:01 (setting [1]), 112 nM; in the test with HLA-A*03:01 (setting [1]), 220 nM; in the test with HLA-A*33:01 (setting [1]), 0.107 µM.

Regarding NAILHNIYR, the dissociation constant Kd with HLA-A*11:01 (setting [1]) is 1360 nM; with HLA-A*68:01 (setting [1]), 0.565 nM; with HLA-A*31:01 (setting [1]), 5.17 nM; in the test with HLA-A*03:01 (setting [1]) it was ≥ 36100 nM; with HLA-A*33:01 (setting [1]), 0.00182 µM.

Take SRLFEDLVWK: the Kd is 1270 nM with HLA-A*11:01 (setting [5]); 605 nM with HLA-A*68:01 (setting [5]); 8590 nM in the test with HLA-A*31:01 (setting [5]); 661 nM in the test with HLA-A*03:01 (setting [5]); ≥ 70 µM with HLA-A*33:01 (setting [5]).

Consider STGNYNYKYR, for which the Kd was 1380 nM with HLA-A*11:01 (setting [3]); 244 nM in the test with HLA-A*68:01 (setting [3]); 34.7 nM with HLA-A*31:01 (setting [3]); 2760 nM with HLA-A*03:01 (setting [3]); 1.09 µM with HLA-A*33:01 (setting [3]).

With LLLFADINGK, the Kd in the test with HLA-A*11:01 (setting [3]) is 508 nM; with HLA-A*68:01 (setting [3]), 9200 nM; with HLA-A*31:01 (setting [3]) it was ≥ 24100 nM; with HLA-A*03:01 (setting [3]), 136 nM; with HLA-A*33:01 (setting [3]), 17.2 µM.

On to STDVNKQNK, for which the Kd in the test with HLA-A*11:01 (setting [1]) was 11.9 nM; with HLA-A*68:01 (setting [1]) it was 290 nM; in the test with HLA-A*31:01 (setting [1]) it was 1180 nM; in the test with HLA-A*03:01 (setting [1]) it was 8970 nM; with HLA-A*33:01 (setting [1]), ≥ 77.7 µM.

Turning to TLNEYKQLY, the dissociation constant (Kd) in the test with HLA-A*11:01 (setting [1]) came out at 124 nM; with HLA-A*68:01 (setting [1]) it was 1360 nM; with HLA-A*31:01 (setting [1]), 1350 nM; in the test with HLA-A*03:01 (setting [1]), 56.7 nM; in the test with HLA-A*33:01 (setting [1]), 7 µM.
